Consider 17 sequences from a protein production outcome set (Wang et al. 2014).
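Also: failed if final PepcDB status was selected cloned or expressed and not failed if soluble or beyond.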

This data set can be described thus: label from the status in PepcDB records.
Turning to “QIRMIAAIAHMGGHDLKDDRVKAMVYACLTGNAAKDILKDIGIVVGRKLTENAIKSISGKTITKINQAVGFRLLTKFGEKG”, the protein production result is recorded as “failed”.

Turning to “MNKPYFIAFLLSLALWTVIPSVFAGDVVLKVFEGKPRINSPHITGNYPSTPFIFYIPTSGQRPMQWSAEKLPEGLELDSKTGIISGVMTSKGDYTVTLKAENALGVSVKQLVIRIGDELLLTPPMGWNSWNTFGQHLTEELVLQTADAMITNGMRDLGYSYINIDDFWQLPERGADGHLQIDKTKFPRGIKYVADYLHERGFKLGIYSDAAEKTCGGVCGSYGYEETDAKDFASWGVDLLKYDYCNAPVDRVEAMERYAKMGRALRATNRSIVYSVCEWGQREPWKWAKQVGGHLWRVSGDIGDIWYRDGNRVGGLHGILNILEINAPLSEYAGPSGWNDPDMLVVGIDGKSMSIGYESEGCTQEQYKSHFSLWCMMASPLLSGNDVRNMNDSTLKILLDPDLIAINQDVLGRQAERSIRSDHYDIWVKPLADGCKAVACFNRASSPQTVILNENTIADLSFEQIYCLDSHLTKSGSDSKELIVKLAPYQCKVYILGKTDLEHHHHHH”, the protein production entry is reported as “failed”.

“MASLDEKWEAVDNFKSVVVDRERDVVRVTKELYDLHSNREQLRGVTSSCNYRLTIPFAPHHFGSGKTTFARTYLELVQRFGETSLSTFASDPLKRTFLEKLKRASLLYADLKELKPTDPKERNLEWAVYYLLIKAACLQSGLPQPDPDECFKELKLRSDALVQKIRSILNIPSDQYLLVAFDEVGVLDESLDEFHFKRTHDGRVRPYNDFFGIISQLCKEPDLFFIVVGKSKGLSIKNYVSSVSKVILHFISLSPLDASSIVEFLEKSLLKTPTQVPVCNVLCSSSFSVNELADSLLECTGGVPGLLTRAVNMLLNYIIARKFVLNHLWNEY”: the protein production entry is “failed”.

Regarding “MEGNFIVARFDKNTSFFEDLEEVCNKHGVKAGTVVWAIGMLKDFEVGYWNGQDYEKETFRERLEIVSLHGTIAENDPKYHIHASGARSNHMIVGGHLFSATVDPLIEIQIMKIEGPKMTRVQDPSDKLFKLKIE”, the protein production entry was “failed”.

Consider “MGRLSVAPLAQLNRLRVRLSLVFVLFLLLVIGLGAFSINRLSAFHNVAAEISGRWLLSNRIAGDLNNSISDFRATEGELLTARRGKDRGRAEGSLAVLDEEIADAKRRYETIEHDPIELDLYRQFSEQWRAYRELANRVLVLSQRDDKTDAIALYYQESRRAFTVANATLATLTERNVTGANEATQAEAVAYRHARDLIVNAIIVAALLMIAGVLYFVTAVTNPIAELVDRMHRISDNETEIDIPSTERPDEVGEIARAVVRFRDNTVALAQSRATLAEQARTLEITLANERRMAELQRNFVSMVSHEFRTPLTVIDGYAQRLSHIKPPLSLEAVQDRSSRIRAAVRRMTALIEDMLGASQVLDLATPGAFQRTEFSLHLLVHEVCEMHRESSPDAQIVEQWHADVPEVFHGDARLLFQAVSNLIGNAVKYSPPKTPVSVDVSMESGAILICVADQGIGIPEKDLGHVFERYVRGANVTGTAGAGVGLYIVRLAAELHGGTVSVRSAEGTGSRFLLRLPEAPAPAPLSA”, for which the protein production result is reported as “failed”.

For “MNSPANITDPLVLFMPSGKRGRFPVGTPVLDAARQLGVYVESVCGGRATCGRCQIEVQEGNFAKHKIVSSNDHISPKGPKEERYERVRGLPERRRLSCSAQILGDLVIDVPQDTVINAQTIRKDADTRVIARDTAIRMCYVEIEEPDMHKPLGDLDRLKIALMKDWGFKNLEFDFYLLPQVQGILRKGNWTATAAIHKDADSDIARVIALWPGLKNEAYGLACDIGSTTIAMHLVSLLSGRVAASSGTSNPQIRFGEDLMSRVSYVMMNPDGREGMTVAVREAISSLVDKVCAEGNVQRNDILDSVFVGNPIMHHLFLGIDPTELGGAPFALAVSGAVRIKASDIGLKLNQGARLYMLPCIAGHVGADAAAVTLSEGPHRQDEMMLIVDVGTNAEIVLGNRARVVAASSPTGPAFEGAEISGGQRAAPGAIERVRIDPDTLEPKYRVIGSELWSDEPGFLDSVQATGVTGICGSGIIEIVAEMYLAGIISEDGVVDGSLAARSPRVTANGRTFSYVLKEGEPKITITQTDVRAIQLAKAALYAGTKLLMEKQNTEHVDRIHFAGAFGSFIDPKYAMVLGLIPDCDLDKVSAVGNAAGAGARMALLNRGYRREIEETVSQIEKIETALEPKFQEHFVYAMALPNKVDPFPKLSAAVKLPPRKTVSEDGIAGDATPRRRSREGHAARRSRE”, the protein production result is “failed”.

As to “MLTQEQIDGIYEDLEHPFHFLWFDIGDAHGVSSGETDPASFEERKKDFLFLVEKLLDEGKLKLGNRKTELIIDGTTAELVEMFRKSFPASDEEMLEGLWLVTEDCPFVAVWLFEGENGEDYYGWC”, the protein production result is reported as “failed”.

Regarding “MQIDHGSRQPYYAQIVTGIEQDIAHGVLQSGEQLPSVREMARQHLLNPNTVSKAYKRLETQQIIETVPGKGTYVKVVDSTLFRQELREQFTQIVRLAGQRGVSIAELHGWLDQMGEK”, the protein production entry was “failed”.

With “MAIPSGATGKEPFLPRTLTVLREGYDGGTFFKDLAAGLTVGIVALPLAMAFAIASGTTPERGLFTAIVAGFLISLLGGSRYQIGGPTGAFVIIIFNVIMKHGYDGLVVTTLLAGAMLLVFGLCRFGALIKYIPYPVTTGFTAGIAVLIFSQQVKDFLGLSMQSVPPDFFEKWQAYIHNAATFDPATCGIAFLALGAIILTRKTIPRIPGPVVGVVLASLTVWALGLDVETIGSRFGGIPTELPTFTLPTVTLERVRQLLPDAMTIALLAGIESLLSCVVADGMTGDKHNSNVELAAQGAANIASVMFGGIPATGAIARTVTNIRSGGRTPVAGMIHAAVLVGFILYLAPLASFIPLASLAAVLMVVAWDMSEMHKFLRLLHAPKSDVLVMCLTFALTVVIDLTVAVYVGVMLASLLFMRRMSEVTQICTCLDGEATKVQGRETAELDVPEGVKVYEIDGPFFFGVADRFQNVLAALDRQPEVFILRMRKVSTLDSTAVNALEVFWRKCRSDGTQLLLSGVRETMRTTLRRMGTLSLIGEGNICENIDAALARAGQVLAERREAEDRPQ”, the protein production entry is “failed”.

As to “MEKSNLYKVDEFGVKNYNYGILAILSFVLFAFINISLGYVTFVAETAVEGSPVKNYADAFWLMLMSSTTIGFGDVYPITLEGRIAVFTMFILGVGILGGVGAVFANKIFGFADTNIKNRELRQQNEEILLQNDKIYQKLTALEDKLEAFNRETK”, the protein production result is “failed”.

On to “MAKNYDQLAKTIIKDVGGKDNVNSVVHCATRLRFKLKDEKKADDDALKNTDGVVTVVKAGGQYQVVIGNEVADVYDAVLKEGGFSGGGEVPDDYSEDDNSSFVDKAVALISGIFTDILAPLSAGGIIKGLVVLAAAMGWLSTSSGAYQILYAIGDSIFYFLPIFLGVTAARRFHMNQFIGLAIGATLTYPTMVQLAASKTVLGTLFAGTPFASQIHTTFFGIPVITMNYTSTVLPVLFAVWFASIIEHWSKKWIPSVVQMFLVPVVTMIITLPIAFIVIGPVMTWVGNAIGAVMSGIYHFSPIIAGLLLGGLWQVLVIFGVHWGIVAVTTADLAALGYDPILGMTCMVCYAQIGVVLAIIKQTKDKKLKENATGAFFSGLFGVTEPAIYGITLPRKRPFVLSCIAGAVSGAIIGAFHSVLYILPSMGFFAIPAYINPKGGSMTQIIGVIIAGVVAFIVGFALQMLFGKKSVDAKYDKKQTEKVEVNETLQTTPDVATATLASPENGQIMPLSEVKDDVFSSGAMGKGIAIEPSDGVLHAPADGKIIMTFKTGHAIGMKTKNGAEILMHIGMDTANLQGKGFDTLVEKDQKVKAGDPLIKFDIDLIKKAGYPVTTPMVVTNSQDFDDIKQIVKGEVKVGQAVLELEAPEAKDVTTSVNGQVQLN”, for which the protein production entry is on record as “failed”.

For “MTDFSRTFSGTPSAVLPTANRFFRPPLPSAHVARPRLCRRLRDGLDGRLLLIAAPAGFGKSSLAIEFCESLDPRWQSLWLGLSSRESDPGRFLERLLDGLRQYHPTLGEEALGLLKMRQRHQPFAFETWLDDLLDELAPCLDPQRPLLLVLDDYHLAQGAVLDRCLQFLLNHLPEGLVLLVTSRQRPDWHLARLRLSRQLLELSEQDLRLTAEESGALMAASGLELDEDALDALLERSEGWVAGLRLWLLARGDPEEQVSPGVHGADELIRDYLLEEVIERQPPEVQAFLAQTARFERFCAELCDTVREAGDSAAILDHLQQHQVFLVPLDENGQWFRYHHLFSDLLLARPLPDFGPSAGSLHLRACGWFSRHGLLDQAVEQALRAGQPDVAASLVQNLSEEQLLAEQNIATLLRWKMDLPDSLLASTPRLILLYGWALALACQLDAAEELAGQLARFLPAPDESAQRDLLAQWQALSGVIARGRGDIDKAEAHCREALQDLAGERYGTRLQCLSTLSNLAVTRGDFWQARNYNRDALEFAQRYGNPLFEALVHYDRARVLQARGEVARAEEEVRQGLERLQHLPAQRRYAVRGRLLLYRGYLRSLALQPDEARKWIKQGIEETRSCRDVSLVIGYCVLASLEGRLGNYAAAFARLGDVERLMHAWDIPPIYYLAAITLIKCELWLAQGQTELAGVWLQRLGGTYGGQAATPPECSPLLPLHVELLQAGLERREGRPEEAARRLDRLARSTRENGALLPARLALGQLAALHLEQGREREALATLQQAMEGAVGGALLPLHELLVQQPEWLREQLQRFPACPGAQRMRALLPEPPAEPAGSAGEVLSGRELAVLELIAQGLSNQEISERLFISLHTVKSHARHINDKLGVERRTQAVARAKHMGLLR”, the protein production result was “failed”.

As for “MAAYQVLIVGAGFSGAETAFWLAQKGVRVGLLTQSLDAVMMPFLPPKPPFPPGSLLERAYDPKDERVWAFHARAKYLLEGLRPLHLFQATATGLLLEGNRVVGVRTWEGPPARGEKVVLAVGSFLGARLFLGGVVEEAGRLSEASYPDLLEDLSRLGFRFVEREGEVPETPSTPGYRVRYLAFHPEEWEEKTFRLKRLEGLYAVGLCVREGDYARMSEEGKRLAEHLLHELG”, the protein production result is listed as “not failed”.

As for “MYHILIRKGLLNMKTVLIVGANGRVSIEATKIFLENSRFNVDLFLRNAHRIPDYASNRIKVYEGDAKNIEDLESALNNVDVVFASLSGSLDKQAETIVKAMDNKNVKRLIFVAAPGIYDELPEPFNQWNKEQFGEKLNRYRKASDIIENSDLDYTIIRPGWLTDKNENVYEITAKNETFKGTEVSRKSVASLAVQIAKNPELHSKENIGVNKPNTEGNKPAWFN”, the protein production entry is reported as “failed”.

Regarding “MQKTAFIWDLDGTLLDSYEAILSGIEETFAQFSIPYDKEKVREFIFKYSVQDLLVRVAEDRNLDVEVLNQVRAQSLAEKNAQVVLMPGAREVLAWADESGIQQFIYTHKGNNAFTILKDLGVESYFTEILTSQSGFVRKPSPEAATYLLDKYQLNSDNTYYIGDRTLDVEFAQNSGIQSINFLESTYEGNHRIQALADISRIFETK”, the protein production result was “not failed”.

On to “MDLFPVLKELAQKTPSKILLIVLDGVGGLPLEPGGPTELEAAKTPNLDRLAEESALGLLTPVYPGLAPGSGPGHLALFGYDPFRYVVGRGALSALGLGADFREGDVALRGNFATLDPEGKVVDRRAGRPPTEENQRVIAKLKEAIPRIEDVEVLFYTESEHRFLVILRGEGLEDKVTDTDPQKTGLPPLKAKALDEASERTARLVNLLSERIREVLKDEPRMNGALFRGASKKPSFPRMQEVYKLTPAAIASYPMYKGLASLVGMEVLPVEGEGDALEGKLKALKENWGRYDFFYFHVKKTDAMGEDGNFHGKVEKVELFDALLPEILALGPDVLAITGDHSTPALLKAHSWHPVPLLLKAPYLRADEARRFTEREAQRGSLGHLRGVELMPLLLAHAGKLLKYGA”, for which the protein production result is reported as “failed”.

Take “MAVRFASLGSGSDGNALLVESTDGTTSTRILLDCGFGIRETVRRLERLGCAPASLDAILVTHEHGDHIGSAYAFAAKYSVPVWTSHGTYRATASLRGADRAAVRFCRADDAFSIGDLRILPYTVPHDAREPLQFIFDDGARRLGVLTDAGMSTEYLCGHLTGLHAFVLECNHDREMLANSAYPWSLKQRIGGDFGHLANDIAAAILARVRHDGLHTVVAAHLSKQNNTPELAAAAIASALGVPAGDVPIADQEAGLGWQAV”: the protein production result is “failed”.
